Experimental data as given in patent US20190083609A1, “TOFACITINIB AS VACCINATION IMMUNE MODULATOR” (HELMOLTZ ZENTRUM MÜNCHEN - DEUTSCHES FORSCHUNGSZENTRUM FÜR …, priority 2016, published 2019).

Assays:
[1] = test system: human naive CD4+ T cells; assay: Differentiation of human naive CD4+ T cells into FOXP3+ CD4+ T cells (flow cytometry); format: cell-based; settings: for increase of the percentage of FOXP3 expressing cells: average of 3 donors versus polarization control; for FOXP3 producing cells within the living CD4+ T cell population: range of 3 donors, control 17.7-43.6%, 5 days
Experimental: For the differentiation of human naive CD4^+ T cells into FOXP3^+ CD4^+ T cells, human peripheral blood mononuclear cells were isolated from heparinized whole blood by standard density gradient centrifugation (Lymphoprep, Axis Shield, Oslo, Norway). Naive CD4^+ T cells were isolated using the Naive CD4^+ T cell Kit II (Miltenyi Biotec, Bergisch Gladbach, Germany) and by additional depletion of CD45RO^+ cells (CD45RO microbeads, Miltenyi Biotec). Cells were cultured in RPMI 1640 (Thermo Fisher Scientific, Waltham, Mass. USA) complete (10% FCS, Biochrom, Merck, Berlin, Germany; 2 mM L-glutamine, 100 U/mL Penicillin/Streptomycin, Thermo Fisher Scientific) in 24-well plates at a concentration of 1×10^6 cells/mL at 37° C. After isolation, cells were stimulated with plate-bound anti-CD3 (10 μg/mL; clone UCHT1, BD Biosciences) and 2 μg/mL anti-CD28 (clone CD28.2, BD Biosciences, 2 μg/mL) in solution and cultured for five days. To induce FOXP3 expression, the culture medium was supplemented with 50 U/mL rIL-2 (Novartis, Nurnberg, Germany) and 5 ng/mL TGF-01 (Promokine). Beneath this control, cells were cultured in the presence of different concentrations of Tofacitinib, Rapamycin (Sigma-Aldrich) and Cyclosporine A (Sigma-Aldrich). After three days of culture, half of the medium was removed and replaced by fresh RPMI 1640 complete, supplemented with the same doses of cytokines and agents as at day 0.
After five days of culture, the cells were washed with ice-cold PBS and stained with LIVE/DEAD Fixable Aqua Dead Cell Stain Kit (Thermo Fisher Scientific) according to the manufacturer's protocol. Moreover the cells were stained 1:300 with anti-CD4-Alexa Flour700 (BioLegend) and 1:100 with anti-FOXP3-eFlour450 (eBiosciences, affymetrix, Frankfurt am Main, Germany) by using the FOXP3/Transcription Factor Staining Buffer Set (eBiosciences, affymetrix) according to manufacturer's protocol. The acquisition of cells was performed with BD FACSDIVA 7.0 on a BD
LSR Fortessa (BD Biosciences). Data were analyzed with the software FlowJo (Tree Star, Ashland, Oreg.), the lymphocyte population was gated on CD4^+ cells and dead cells were excluded from the analysis.

[2] = test system: T cells (total splenocytes from wild type mice); assay: T cell stimulation in cell culture (viable cells by CellTiter-Glo); format: cell-based, mouse; settings: Tofacitinib 50, 150, 500 ng/ml; IL-2/anti-CD3 low and high stimulation; 4 days
Experimental: (§3) For the T and B cell stimulation spleen cell from wild type mice were isolated and cells were cultivated in 200 μl/well in RPMI complete in cell culture plates (100,000 cells/well). For T cell stimulation total splenocytes were incubated 4 days with 1 ng/ml II-2 and 1 pg/ml anti-CD3 (Low) or 5 ng/ml II-2 and 10 pg/ml anti-CD3 (High) and three varying concentrations of Tofacitinib 50 ng/ml, 150 ng/ml and 500 ng/ml. For B cell stimulation cells were stimulated 8 days by incubation with 1 pg/ml anti-CD40 and 1L4 1 ng/ml (Low) and with 1 pg/ml anti-CD40 and 5 ng/ml (High) and three varying concentrations of Tofacitinib 50 ng/ml, 150 ng/ml and 500 ng/ml. The number of viable cells was determined by CellTiter-Glo Assay (Promega) and IgE concentration in the supernatant was measured by ELISA.

[3] = humans; cited from earlier work
[4] = test system: B cells (spleen cells from wild type mice); assay: B cell stimulation in cell culture (CellTiter-Glo; IgE ELISA of supernatant); format: cell-based, mouse; settings: Tofacitinib 50, 150, 500 ng/ml, 8 days
Experimental: as §3

[5] = test system: OVA-allergic mice; assay: Plasma immunoglobulins (total IgE ELISA, IgG1 MSD) after challenge in OVA allergic airway inflammation / ASIT model; format: in vivo, mouse
Experimental: (§1) For allergic sensitization and allergen-challenge, mice were treated twice by intraperitoneal injection of […] OVA (chicken ovalbumin, Sigma, Germany) and 0.5 mg aluminum hydroxide (alum; 40 mg magnesium/40 mg alum per ml; inject® ThermoFischer, Rockford, USA) in 200 μl phosphate buffered saline (PBS) at day (D) 1 and D-7 as previously described (Aguilar-Pimentel J A, Alessandrini F, Huster K M, Jakob T, Schulz H, Behrendt H, et al. Specific CD8 T cells in IgE-mediated allergy correlate with allergen dose and allergic phenotype, Am J Respir Crit Care Med 2010; 181:7-16, and Fuchs H, Gailus-Durner V, Adler T, Aguilar-Pimentel J A, Becker L, Calzada-Wack J, et al. Mouse phenotyping, Methods 2011; 53:120-35). Subsequently, mice were challenged by inhalative exposure to OVA aerosol (1% in PBS) for 10 min once a day at D-49, 52 and 55. 24 h after the last challenge (D-56) blood samples were collected and animals sacrificed to obtain bronchoalveolar lavage (BAL) samples.
For allergen-specific-immunotherapy (ASIT), animals were treated by subcutaneous injection of 1 mg OVA D-22, and 0.5 mg OVA D-29. For treatment with Tofacitinib, two doses per day were administrated on D-20 to D-24, and D-27 to D-31. […]

[6] = test system: OVA-allergic mice; assay: Systemic (plasma) cytokine profile in OVA allergic airway inflammation / ASIT model; format: in vivo, mouse; settings: after OVA-aerosol challenge
Experimental: as §1, with “samples. […]” for “samples.”
Mouse blood samples were collected before and after challenge as previously described (Aguilar-Pimentel J A, Alessandrini F, Huster K M, Jakob T, Schulz H, Behrendt H, et al. Specific CD8 T cells in IgE-mediated allergy correlate with allergen dose and allergic phenotype, Am J Respir Crit Care Med 2010; 181:7-16; Fuchs H, Gailus-Durner V, Adler T, Aguilar-Pimentel J A, Becker L, Calzada-Wack J, et al. Mouse phenotyping, Methods 2011; 53:120-35 and Fulton R J, McDade R L, Smith P L, Kienker L J, Kettman J R, Jr. Advanced multiplexed analysis with the FlowMetrix system, Clin Chem 1997; 43:1749-56) by puncturing the retro-orbital plexus (Li-heparin-coated tubes, KADE, Numbrecht, Germany) under isoflurane anesthesia. […] Plasma total IgE was measured using a classical immunoassay isotope-specific sandwich ELISA. […] Signal intensities of labeled total murine IgE were measured at 450 nm in a standard microwell ELISA reader and results reported in ng/ml based on a standard curve of purified IgE. […]

[7] = test system: OVA-allergic mice; assay: Cytokine profile in BAL fluid (MSD multiplex) in OVA allergic airway inflammation / ASIT model; format: in vivo, mouse
Experimental: as §1
For allergen-specific-immunotherapy (ASIT), animals were treated by subcutaneous injection of 1 mg OVA D-22, and 0.5 mg OVA D-29. For treatment with Tofacitinib, two doses per day were administrated on D-20 to D-24, and D-27 to D-31.
(§2) Flow cytometry was performed to quantify cell surface markers of BAL cells using the following monoclonal antibodies: anti-CD8a, anti-Lytic, anti-CD4, anti-CD62L, anti-CD3, anti-CD25, anti- GO, anti-CD19, anti-CD11 b, anti-CD11 c, and anti-MHC-II (Fuchs H, Gailus-Durner V, Adler T, Aguilar-Pimentel J A, Becker L, Calzada-Wack J, et al. Mouse phenotyping, Methods 2011; 53:120-35). Data were acquired using a LSRII flow cytometer (BD Bioscience) and further analyzed with FACSDiVa (BD Bioscience) and Flowjo V.7.2.2 (Tree star, Ashland, USA) software. Cytokines from BAL were analyzed by a multiplex measurement of proinflammatory cytokines from Meso Scale Discovery electrochemiluminescence assay (MSD, USA).

[8] = test system: OVA-allergic mice; assay: BAL cell infiltration by flow cytometry in OVA allergic airway inflammation / ASIT model; format: in vivo, mouse
Experimental: as §1, with “Subsequently, mice were challenged by inhalative exposure to OVA aerosol (1% in PBS) for 10 min once a day at D-49, 52 and 55. 24 h after the last challenge (D-56) blood samples were collected and animals sacrificed to obtain bronchoalveolar lavage (BAL) samples.” left out
Four experimental groups of mice each group consisting of 14 mice were analyzed in parallel (FIGS. 1 and 2): […]
as §2, with “Cytokines from BAL were analyzed by a multiplex measurement of proinflammatory cytokines from Meso Scale Discovery electrochemiluminescence assay (MSD, USA).” left out

Question: For `CO[C@H]1C[C@@H]2CC[C@@H](C)[C@@](O)(O2)C(=O)C(=O)N2CCCC[C@H]2C(=O)O[C@H]([C@H](C)C[C@@H]2CC[C@@H](O)[C@H](OC)C2)CC(=O)[C@H](C)/C=C(\C)[C@@H](O)[C@@H](OC)C(=O)[C@H](C)C[C@H](C)/C=C/C=C/C=C/1C` [Rapamycin], which “FOXP3 expression relative to control” value ([1]; concentration not given) is on record?
Answer: 1.3 fold

Question: Which results are given for `C[C@@H]1CCN(C(=O)CC#N)C[C@@H]1N(C)c1ncnc2[nH]ccc12` [Tofacitinib, 3-((3R, 4R)-4-methyl-3-[methyl-(7H-pyrrolo[2,3-d]pyrimidin-4-yl)-amino]-piperidin-1-yl)-3-oxopropionitrile]?
Answer: proliferation of T cells [2]: significantly decreased; mean terminal plasma half-life [3]: 3.2 h; increase of the percentage of FOXP3 expressing cells ([1]; 0.1 μM): about 2.4 (+/−0.7) fold; FOXP3 producing cells within the living CD4+ T cell population ([1]; 0.1 μM): 57.2-77.1%; increase of the percentage of FOXP3 expressing cells ([1]; 1 μM): ~2.5 (+/−1.3) fold; FOXP3 producing cells within the living CD4+ T cell population ([1]; 1 μM): 51.1-70.6%; FOXP3-enhancing effect ([1]; 10 μM): diminished; cytotoxicity ([1]; 10 μM, data not shown): induced cytotoxicity; proliferation of B cells ([4]; anti-CD40/IL4 low and high stimulation): significantly decreased; IgE production by B cells ([4]; anti-CD40/IL4 stimulation, supernatant ELISA): decreased

B1: OVA-ASIT: allergen-specific immunotherapy: subcutaneous injection of chicken ovalbumin (OVA) in OVA-sensitized mice (protein, UniProt P01012 2-386, looked up)
Ovalbumin: GSIGAASMEFCFDVFKELKVHHANENIFYCPIAIMSALAMVYLGAKDSTRTQINKVVRFDKLPGFGDSIEAQCGTSVNVHSSLRDILNQITKPNDVYSFSLASRLYAEERYPILPEYLQCVKELYRGGLEPINFQTAADQARELINSWVESQTNGIIRNVLQPSSVDSQTAMVLVNAIVFKGLWEKAFKDEDTQAMPFRVTEQESKPVQMMYQIGLFRVASMASEKMKILELPFASGTMSMLVLLPDEVSGLEQLESIINFEKLTEWTSSNVMEERKIKVYLPRMKMEEKYNLTSVLMAMGITDVFSSSANLSGISSAESLKISQAVHAAHAEINEAGREVVGSAEAGVDAASVSEEFRADHPFLFCIKHIATNAVLFFGRCVSP
Question: Which “total IgG1 levels” value ([5]; median [quantiles], OVA-allergic mice 0.8267 mg/ml) does the source give for B1 here?
Answer: 1.936 mg/mL

Question: What about the “reduction of total IgE-levels” value ([5]; versus OVA-allergic mice) of the same molecule?
Answer: 43.5%

Question: And the “effects on IL-2 plasma levels” value [6]?
Answer: no significant effects

Question: What about the “inhibition of IL-1beta plasma levels” value [6] of the same molecule?
Answer: 41%

Question: What about the “reduction of IL-6 plasma levels” value [6] of the same molecule?
Answer: 44%

Question: What about the “IFN-γ in BAL fluid” value ([7]; barely detectable) of the same molecule?
Answer: marginally reduced

Question: What about the “IL-2 in BAL fluid” value ([7]; barely detectable) of the same molecule?
Answer: marginally reduced

Question: What about the “IL-5 secretion in BAL” value ([7]; mouse, in vivo) of the same molecule?
Answer: increase

Question: And the “secretion of Th2-cytokine IL-4 in BAL” value ([7]; mouse, in vivo)?
Answer: reduced

Question: What about the “inhibition of IL-1 beta secretion in BAL fluid” value ([7]; versus OVA-allergic mice) of the same molecule?
Answer: 80%

Question: What about the “inhibition of IL-6 secretion in BAL fluid” value ([7]; versus OVA-allergic mice) of the same molecule?
Answer: 82%

Question: And the “inhibition of TNF-a secretion in BAL fluid” value ([7]; versus OVA-allergic mice)?
Answer: 84%

Question: What about the “inhibition of chemokine CXCL1 in BAL fluid” value ([7]; versus OVA-allergic mice) of the same molecule?
Answer: 21%

Question: What about the “suppression of total broncho-alveolar lavage cell infiltration” value ([8]; compared to OVA-allergic mice, BAL 24 h after last challenge (D-56)) of the same molecule?
Answer: 88%

Question: What about the “eosinophil BAL cell infiltration” value ([8]; median [1st, 3rd quantile], OVA-allergic mice 81%, BAL at D-56) of the same molecule?
Answer: 63.18%
